Data published in the supplement of paper PMC12042874.
± gives the uncertainty stated by the source.

assay: amyloid nucleation score (Sup35N fusion, yeast selection) (log enrichment); library NNK3; higher = more nucleation; inactive = no reads after selection
Summary of the method: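 The nucleation score equals the log enrichment of output over input reads from DiMSum, centred on the mode score of non-aggregating sequences. It was computed only for sequences with 100 or more input reads. The reads came from Illumina sequencing of plasmid inserts from psi-negative yeast expressing Sup35N fused to peptides of 20 random codons, induced with 100 μM copper sulfate for 24 hours and grown 7 days at 30°C without adenine and uracil.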

Substance	amyloid nucleation score
FQIWCIFYLNMS	2 ± 0.095
FQKLEVNKLGIIWNHVLTRK	inactive
FQNHVSASKVVWHRFNRRKD	inactive
FQPMV	inactive
FQVYFLSVYACRCLMARLGS	inactive
FRESFLSSYVEYMTLGPGSN	-0.342 ± 0.87
FRFSGWLCWSTALPILVRKD	inactive
FRHFRSLLSVFLVYRFQLSV	inactive
FRIFVRRVI	2.33 ± 0.084
FRKETNSSHGLMKWAKEQ	inactive
FRLKY	0.12 ± 0.68
FRMPDGELSGT	inactive
FRMQGLKVREA	inactive
FRRLSFMVVFGERKGVVSLG	inactive
FRSVSLWSSN	inactive
FRVEFTVMFLGVCTYSGDAL	-0.329 ± 0.65
FRYVREAGIGIVG	inactive
FSACS	inactive
FSDCQLESGCCHRSRDLIGL	inactive
FSFNQWDLLKMSIGCFKRCK	inactive
FSFTIDAYRHRTTSVLMRMS	inactive
FSGRMVFNPPIISCSYSWSW	inactive
FSHHIDTFV	inactive
FSIFSVFEPWMISKFCP	inactive

Substance	amyloid nucleation score
FSITVFFVNIAATSKPYLDK	inactive
FSIWKV	inactive
FSLFFLCIFFDNRTKFMCLA	inactive
FSLLPKCLSLSGDRNGFKMC	inactive
FSMVCSFKWL	inactive
FSNLYLVMTNCPSRDPPVYT	inactive
FSPFNAENSETVTCTGCSHC	inactive
FSPFYCHILLH	inactive
FSRPLPTPESYRW	-0.287 ± 1.3
FSSMQDWSFGIYLNSEAPPT	inactive
FSTFRLSRLCHRDRRSHARQ	inactive
FSTQRLNG	inactive
FSVGEFCR	inactive
FSVGFYFIYMTLKCGSCVQW	-0.362 ± 1.1
FSVPLVCDIYCLYTDVEYRH	2.53 ± 0.059
FSWFHRRSYSVVTSLCLMGR	inactive
FSWMC	inactive
FTCFNGQLVMA	inactive
FTDFCVCGCNVFDVMFLLQS	2.67 ± 0.056
FTGKRSALGCIGVCILF	-0.598 ± 1.2
FTHAIPVYDEVPNHDICDGS	inactive
FTLASRLLWGRMCNV	inactive
FTLFMDRVIFASSVDSTEIL	inactive
FTPLNDDNKCVVSYEY	inactive

Substance	amyloid nucleation score
FTQCNEAGCWHESDTNFMQC	0.109 ± 0.75
FTRNCSKWIVG	inactive
FTRYRNVFKWTMWFSYFWQA	inactive
FTSDGEYNRVLPGRSQGASF	-0.92 ± 2.5
FTTCMNYIRRLNRKAPNKCR	inactive
FVCCYVYAQQLRRRYIFNLS	inactive
FVCSARYNSFRFKATVHNSR	inactive
FVFSRNG	inactive
FVGNGWSNFSL	inactive
FVHKNPHHRFAQMCTKANCR	inactive
FVKKRLVKGKNFFIELFLMC	inactive
FVKLKYINFGCLRGCESGCL	1.42 ± 0.13
FVPFERNKMIMKRICEVCVA	0.97 ± 0.11
FVRIYNFILLAV	inactive
FVSDRSSGYTGMLIKDAL	inactive
FVSPYRNHVGVGSDADWGFR	inactive
FVSWWNRSYVCVWIKLMNWR	inactive
FVYFNT	inactive
FVYTDVCSQFFRMGHFDTSY	-0.21 ± 0.7
FVYWLILYLRRVAERR	inactive
FWEYVRKLIEYEYLGSR	inactive
FWHENSIAELWICKTLLGKF	inactive
FWKNHRAIHSMFQRHLRHTF	inactive
FWLGDM	inactive

Substance	amyloid nucleation score
FWLTNISFDLKFKINSSEFT	0.205 ± 0.33
FWNRWVVQVDSLSMRMSRVA	inactive
FWNVCLDCISR	inactive
FWRYAYNCYCGYSCDQIGDS	inactive
FWSLNIQGSNYFLHIVNIGR	inactive
FWVRYGPNSQGVGPWTMHRW	0.189 ± 0.74
FYCFIPGMSVMAPFVTSYYY	1.91 ± 0.053
FYEHLVRSNFLSLRRMVRTV	inactive
FYFNRHRHHNVCRYLIGHPC	inactive
FYKGKG	inactive
FYLGRLSVNGRVVQRHNESM	inactive
FYLTR	inactive
FYMASMCCWF	inactive
FYMISPTISFLLFGLLANI	inactive
FYPKLPTLSVQDVGHRKPST	inactive
FYSIFN	inactive
FYSSSL	inactive
FYSWCR	inactive
FYSYRTCDGRIAGIIAGNRA	inactive
FYVASFWYYPKSEHNGA	inactive
FYYRESRQLRLWVYIGSIVY	inactive
GACYTFAA	inactive
GADDVTNRRTVVVSTQALCL	inactive
GADKFSMLRVYGICRLGSAC	-0.024 ± 0.93

Substance	amyloid nucleation score
GAFSWCSRVVDMVRLTRCDH	inactive
GALGSVMVNGRGVTSEGSPY	0.341 ± 0.39
GCFGPLCDRLSEWMENCWKK	0.392 ± 0.35
GCFSCVCLP	inactive
GCFYCQALNLHPLTSVHAD	inactive
GCFYIFRIY	-0.222 ± 1.3
GCGRCFL	inactive
GCNGDRFRF	-0.255 ± 0.88
GCWECPTYQMLCTRVCLTWT	inactive
GDEVHGFIVVQSREAFSRKL	inactive
GDFSSCL	inactive
GDGAYS	inactive
GDGNRWDRTGSCHLQGAYCR	inactive
GDGYRQRVLLWMLVSAGPAS	inactive
GDLGDVPGRWDWNKSWFVNY	inactive
GDMFDWFSGELVFRMRNILC	-0.917 ± 1.1
GDMKGSISCIIKKEVINVQC	inactive
GDSLWIFTAGIDCSYRLIFD	inactive
GDSSVTWI	inactive
GDTDFYRSCNASYIPSLSRL	inactive
GFAMVLSWLKSGFPISRDLR	inactive
GFETLYIYAVRGN	inactive
GFIVGLLARSTIFTTNYMLK	inactive
